In paper PMC10397247:

Columns and labels:
Assay in all cases: two-hybrid library CCmax;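 further: natural log of median RNA to DNA barcode read ratio; higher means stronger binding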
4H3015-AA = molecular target: T1, 4H3015-AA; settings: mean of both orientations
T1 chain: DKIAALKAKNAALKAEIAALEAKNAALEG

4H_APH = molecular target: T2, 4H_APH; settings: mean of both orientations
T2 chain: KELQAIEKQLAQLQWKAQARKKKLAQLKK

4H406-AA = molecular target: T3, 4H406-AA; settings: mean of both orientations
T3 chain: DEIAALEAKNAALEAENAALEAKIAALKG

4H2732-AA = molecular target: T4, 4H2732-AA; settings: mean of both orientations
T4 chain: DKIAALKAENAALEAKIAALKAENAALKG

4H2592-AA = molecular target: T5, 4H2592-AA; settings: mean of both orientations
T5 chain: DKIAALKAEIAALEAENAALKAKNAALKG

4H249-AA = molecular target: T6, 4H249-AA; settings: mean of both orientations
T6 chain: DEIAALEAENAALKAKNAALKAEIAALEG

4H3001-AA = molecular target: T7, 4H3001-AA; settings: mean of both orientations
T7 chain: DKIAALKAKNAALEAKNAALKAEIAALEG

4H_GCN4 = settings: mean of both orientations
4H2931-AA = molecular target: T8, 4H2931-AA; settings: mean of both orientations
T8 chain: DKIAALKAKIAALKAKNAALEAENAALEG

4H2774-AA = molecular target: T9, 4H2774-AA; settings: mean of both orientations
T9 chain: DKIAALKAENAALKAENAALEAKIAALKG

4H2343-AA = molecular target: T10, 4H2343-AA
T10 chain: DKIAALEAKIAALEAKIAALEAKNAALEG

4H452-AA = molecular target: T11, 4H452-AA; settings: mean of both orientations
T11 chain: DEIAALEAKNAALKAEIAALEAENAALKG

4H2466-AA = molecular target: T12, 4H2466-AA; settings: mean of both orientations
T12 chain: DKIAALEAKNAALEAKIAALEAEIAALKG

4H_BCR = molecular target: T13, 4H_BCR; settings: mean of both orientations
T13 chain: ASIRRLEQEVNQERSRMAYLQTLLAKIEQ

4H347-AA = molecular target: T14, 4H347-AA; settings: mean of both orientations
T14 chain: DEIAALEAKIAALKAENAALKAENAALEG

4H56-AA = molecular target: T15, 4H56-AA; settings: mean of both orientations
T15 chain: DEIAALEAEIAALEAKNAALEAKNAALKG

4H3073-AA = molecular target: T16, 4H3073-AA; settings: mean of both orientations
T16 chain: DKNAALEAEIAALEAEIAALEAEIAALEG

GCN2_T = molecular target: GCN2_T
4H3438-AA = molecular target: T17, 4H3438-AA; settings: mean of both orientations
T17 chain: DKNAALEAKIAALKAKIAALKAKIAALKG

4H_GCN4, sequence (chain, as listed by the source): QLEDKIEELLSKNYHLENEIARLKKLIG

interaction score (4H3015-AA): -1.83
interaction score (4H_APH): -1.88
interaction score (4H406-AA): -1.85
interaction score (4H2732-AA): -1.84
interaction score (4H2592-AA): -1.2
interaction score (4H249-AA): -1.75
interaction score (4H3001-AA): -1.8
interaction score (4H_GCN4): -1.32
interaction score (4H2931-AA): -1.61
interaction score (4H2774-AA): -1.54
interaction score (4H2343-AA): 1.95
interaction score (4H452-AA): -1.86
interaction score (4H2466-AA): -1.39
interaction score (4H_BCR): -2.04
interaction score (4H347-AA): -1.77
interaction score (4H56-AA): -1.45
interaction score (4H3073-AA): 0.404
interaction score (GCN2_T): -2.25
interaction score (4H3438-AA): 0.393
B1: 4H2343-AA (peptide)
chain: DKIAALEAKIAALEAKIAALEAKNAALEG
